The Immune Epitope Database (IEDB)
pIC50, pKd: −log10 of the molar value.

Tests used:
HLA-A*02:03 [1] = test: IEDB peptide-MHC binding, purified MHC/direct/fluorescence; filed as Kd, often an IC50 or EC50 that approximates it; ≥ and ≤ were set here for values at or beyond the usual limits of such assays
HLA-A*02:11 = test: as above
HLA-A*02:12 = test: as above
HLA-A*69:01 [2] = test: as above
HLA-A*02:01 = test: IEDB peptide-MHC binding, purified MHC/competitive/fluorescence; ≥ and ≤ were set here for values at or beyond the usual limits of such assays
HLA-A*24:02 = test: as above
HLA-B*07:02 [3] = test: as above
HLA-B*08:01 [4] = test: as above
HLA-B*15:01 [5] = test: as above
HLA-B*18:01 [6] = test: IEDB peptide-MHC binding, purified MHC/direct/fluorescence; filed as Kd, often an IC50 or EC50 that approximates it; ≥ and ≤ were set here for values at or beyond the usual limits of such assays; settings: source organism: Yellow fever virus 1899/81
HLA-B*15:42 = test: IEDB peptide-MHC binding, purified MHC/competitive/fluorescence; filed as Kd, often an IC50 or EC50 that approximates it; ≥ and ≤ were set here for values at or beyond the usual limits of such assays
HLA-B*45:06 = test: as above
HLA-B*83:01 = test: as above
HLA-B*08:02 = test: IEDB peptide-MHC binding, purified MHC/direct/fluorescence; filed as Kd, often an IC50 or EC50 that approximates it; ≥ and ≤ were set here for values at or beyond the usual limits of such assays
HLA-A*02:16 = test: as above; settings: source organism: Orthohantavirus tulaense
HLA-A*02:19 = test: as above
HLA-A*24:03 = test: as above; settings: source organism: Orthohantavirus tulaense
HLA-A*68:02 = test: as above; settings: source organism: Orthohantavirus tulaense
HLA-A*03:01 [7] = test: IEDB peptide-MHC binding, purified MHC/competitive/fluorescence; filed as Kd, often an IC50 or EC50 that approximates it; ≥ and ≤ were set here for values at or beyond the usual limits of such assays; settings: source organism: Orthohantavirus tulaense
HLA-A*26:01 = test: as above; settings: source organism: Orthohantavirus tulaense
HLA-A*31:01 = test: as above
HLA-A*69:01 [8] = test: as above; settings: source organism: Orthohantavirus tulaense
HLA-B*15:01 [9] = test: as above; settings: source organism: Orthohantavirus tulaense
HLA-B*18:01 [10] = test: as above; settings: source organism: Orthohantavirus tulaense
HLA-B*27:03 = test: as above; settings: source organism: Orthohantavirus tulaense
HLA-B*39:01 = test: as above; settings: source organism: Orthohantavirus tulaense
HLA-B*46:01 = test: as above; settings: source organism: Orthohantavirus tulaense
HLA-B*51:01 = test: as above
HLA-B*57:01 = test: as above; settings: source organism: Orthohantavirus tulaense
HLA-B*07:02 [11] = test: IEDB peptide-MHC binding, purified MHC/direct/fluorescence; filed as Kd, often an IC50 or EC50 that approximates it; ≥ and ≤ were set here for values at or beyond the usual limits of such assays; settings: source organism: Mycobacterium tuberculosis variant bovis
HLA-B*35:01 = test: IEDB peptide-MHC binding, purified MHC/competitive/fluorescence; filed as Kd, often an IC50 or EC50 that approximates it; ≥ and ≤ were set here for values at or beyond the usual limits of such assays; settings: source organism: Mycobacterium tuberculosis H37Rv
HLA-A*03:01 [12] = test: IEDB peptide-MHC binding, purified MHC/direct/fluorescence; filed as Kd, often an IC50 or EC50 that approximates it; ≥ and ≤ were set here for values at or beyond the usual limits of such assays; settings: source organism: Mammarenavirus lassaense
HLA-A*11:01 = test: as above; settings: source organism: Mammarenavirus lassaense
HLA-B*15:01 [13] = test: as above; settings: source organism: Campylobacter jejuni
HLA-B*08:01 [14] = test: as above; settings: source organism: Mycobacterium tuberculosis str. Haarlem
HLA-A*02:03 [15] = test: IEDB peptide-MHC binding, purified MHC/competitive/radioactivity; filed as Kd, often an IC50 or EC50 that approximates it; ≥ and ≤ were set here for values at or beyond the usual limits of such assays; settings: source organism: Dengue virus 1 Brazil/97-11/1997
HLA-A*02:17 = test: as above; settings: source organism: Dengue virus 1 Singapore/S275/1990
[16] = source organism: Mycobacterium tuberculosis str. Haarlem
[17] = source organism: Vaccinia virus
[18] = source organism: Yellow fever virus 1899/81
[19] = source organism: Orthohantavirus tulaense
[20] = source organism: Vaccinia virus Copenhagen
[21] = source organism: Zaire ebolavirus
[22] = source organism: Mopeia Lassa virus reassortant 29
[23] = source organism: dengue virus type 3

With ALFPIIWAL the pKd (HLA-A*02:03 [1]; [16]) was 8.52, the pKd (HLA-A*02:11; [16]) was ≥ 9.00 and the pKd (HLA-A*02:12; [16]) was 8.40. The pKd (HLA-A*69:01 [2]; source organism: Mycobacterium tuberculosis) was 6.27.
In the case of GMLRFANPL, the pIC50 (HLA-A*02:01; [17]) was 6.19, the pIC50 (HLA-A*24:02; [17]) was 5.09 and the pIC50 (HLA-B*07:02 [3]; [17]) was 5.27. For the same sequence, the pIC50 (HLA-B*08:01 [4]; [17]) was 4.93 and the pIC50 (HLA-B*15:01 [5]; [17]) was 5.77.
For HEVNGTWMI, the pKd (HLA-B*18:01 [6]) was 8.05, the pKd (HLA-B*15:42; [18]) was ≤ 5.30 and the pKd (HLA-B*45:06; [18]) was ≤ 5.30. The pKd (HLA-B*83:01; [18]) was ≤ 5.30.
In the case of ILKERKQAL, the pKd (HLA-B*08:02; source organism: Listeria monocytogenes serotype 4b str. H7858) was 5.79.
In the case of ILMARYMSK, the pKd (HLA-A*02:03 [1]; [19]) was ≤ 4.70, the pKd (HLA-A*02:11; [19]) was ≤ 4.70 and the pKd (HLA-A*02:12; [19]) was ≤ 4.70. For the same sequence, the pKd (HLA-A*02:16) was ≤ 4.70, the pKd (HLA-A*02:19; [19]) was ≤ 4.70 and the pKd (HLA-A*24:03) was ≤ 4.70. For the same sequence, the pKd (HLA-A*68:02) was ≤ 4.70, the pKd (HLA-A*03:01 [7]) was 7.20 and the pKd (HLA-A*26:01) was ≤ 4.70. The pKd (HLA-A*31:01; [19]) was 7.82, the pKd (HLA-A*69:01 [8]) was ≤ 4.70 and the pKd (HLA-B*15:01 [9]) was ≤ 4.70. For the same sequence, the pKd (HLA-B*15:42; [19]) was ≤ 5.30, the pKd (HLA-B*18:01 [10]) was ≤ 4.70 and the pKd (HLA-B*27:03) was ≤ 4.70. The pKd (HLA-B*39:01) was ≤ 4.70, the pKd (HLA-B*45:06; [19]) was ≤ 5.30 and the pKd (HLA-B*46:01) was ≤ 4.70. The pKd (HLA-B*51:01; [19]) was ≤ 4.70, the pKd (HLA-B*57:01) was ≤ 4.70 and the pKd (HLA-B*83:01; [19]) was ≤ 5.30.
ILRSIEGEL was tested, and the pIC50 (HLA-B*07:02 [3]; [20]) was 4.47, the pIC50 (HLA-B*08:01 [4]; [20]) was ≤ 3.28 and the pIC50 (HLA-B*15:01 [5]; [20]) was 4.40.
In the case of INKLNGAMV, the pIC50 (HLA-B*07:02 [3]; [20]) was ≤ 4.13.
In the case of LPAGSPVAV, the pKd (HLA-B*07:02 [11]) was 6.62, the pKd (HLA-B*35:01) was 8.57 and the pKd (HLA-B*51:01; source organism: Mycobacterium tuberculosis H37Rv) was 6.34.
For QLREAATEA, the pIC50 (HLA-A*02:01; [21]) was 4.70, the pIC50 (HLA-B*07:02 [3]; [21]) was 4.55 and the pIC50 (HLA-B*08:01 [4]; [21]) was ≤ 3.72. For the same sequence, the pIC50 (HLA-B*15:01 [5]; [21]) was 4.21.
RLKFSLSYK showed a pKd (HLA-A*03:01 [12]) of 7.32, a pKd (HLA-A*11:01) of 7.22 and a pKd (HLA-A*31:01; [22]) of 8.14. For the same sequence, the pKd (HLA-B*15:42; [22]) was ≤ 5.30, the pKd (HLA-B*45:06; [22]) was ≤ 5.30 and the pKd (HLA-B*83:01; [22]) was ≤ 5.30.
SLNLAKEAV was tested, and the pKd (HLA-A*02:11; source organism: Campylobacter jejuni subsp. jejuni HB93-13) was 8.52, the pKd (HLA-A*69:01 [2]; source organism: Campylobacter jejuni) was 5.36 and the pKd (HLA-B*15:01 [13]) was ≤ 4.47.
TLRRRFAVA was tested, and the pKd (HLA-B*08:01 [14]) was 7.92 and the pKd (HLA-B*08:02; [16]) was ≤ 4.70.
TLYAVATTV was tested, and the pKd (HLA-A*02:11; [23]) was ≥ 9.00, the pKd (HLA-A*02:12; [23]) was 8.30 and the pKd (HLA-A*02:19; [23]) was 8.00. For the same sequence, the pKd (HLA-A*02:03 [15]) was 7.89 and the pKd (HLA-A*02:17) was 5.79.
TNQLRSVGL gave a pIC50 (HLA-B*07:02 [3]; [21]) of 4.19 and a pIC50 (HLA-B*08:01 [4]; [21]) of 4.48.
WISHRPVVL showed a pIC50 (HLA-A*02:01; source organism: Variola virus) of 5.96, a pIC50 (HLA-A*24:02; source organism: Variola virus) of 4.67 and a pIC50 (HLA-B*07:02 [3]; source organism: Variola virus) of 5.15. It also gave a pIC50 (HLA-B*08:01 [4]; source organism: Variola virus) of 4.59.
In the case of YLFGGFSTL, the pIC50 (HLA-B*07:02 [3]; source organism: Variola virus) was 5.12, the pIC50 (HLA-B*08:01 [4]; source organism: Variola virus) was ≤ 3.56 and the pIC50 (HLA-B*15:01 [5]; source organism: Variola virus) was 5.48.
